Measured values taken from US20170296650A1.

Columns and labels:
[1] = target: hCMV gH (HEK293T transfectant) (hCMV), P12824; test: cell competition; competitor 3G16-biotin; conditions: remark: other sources report otherwise
[2] = target: hCMV gH (HEK293T transfectant) (hCMV), P12824; test: cell competition; competitor 11B12-biotin; conditions: remark: other sources report otherwise
[3] = target: hCMV gH (HEK293T transfectant) (hCMV), P12824; test: cell competition; competitor 13H11-biotin; conditions: remark: other sources report otherwise
[4] = target: gB 69-78 peptide (hCMV) (UniProt P06473); test: ELISA, gB 69-78 peptide

| Binder | Inhibition of binding (%) [1] [%] | Inhibition of binding (%) [2] [%] | Inhibition of binding (%) [3] [%] | EC50 [4] [µg/mL] |
| --- | --- | --- | --- | --- |
| 3G16 (antibody, V domains shown) VH: RAQLVQSAAEMKNPGASVKVSCEASGYTFTGYYVHWMRQAPGQGLEWMGWINPMTGATKSPQKFQGRVTMTRDTSTTATHIELTRLRSDDSAVFFCARGGPTSTRITGKRHFDLWGRGTLITVAS VL: QSALTQPASVSGSPGESITISCTGTISDVGAYNSVSWYQQHSGTAPELIIYDVTNRPAGVSSRFSGSKSGNTASLTISWLQSEDEAEYYCSSYTTSDTYVFGSGTQVTVL | 100 | 0 | 0 |  |
| 11B12 (antibody, V domains shown) VH: QMQLVQSGPQVKKPGTSVKVSCKASGFTFTSSAMQWVRQARGQRPEWIGWIVLGSGNTNYAQKFQERVTLTRDMSTATAYMELSSLRSEDTAVYYCAADRGRGGYNVYTYWGQGTLVAVSS VL: EIVMTQSPGTLSLSPGERATLSCRASQTISNTYVAWYQQKPGQAPRLLIYGASSRATGIPDRFSGSGSGTDFTLTIRRLEPEDFAVYYCQQNGQSPWTFGQGTNVEIK | 0 | 100 | 100 |  |
| 6B4 (antibody, V domains shown) VH: QVQLVESGGGVVQPGRSLRLSCAASGFRFNEFNMHWVRQAPGKGLEWVAVISIDGRHKYNADSVEGRFTISRDNSRNTLYLQMNSLRVEDTALYYCVTDGKAVDGFSGILEFWGQGTPVTVST VL: EIVLTQSPATLSLSPGERATLSCWASQSVGGYLAWYQQKPGQAPRLLIYDASIRATGIPARFSGSGSGTHFTLTINSLEPEDFAVYYCQQRNNWPPLTFGGGTKVEIK |  |  |  | 0.044 |
| 13H11 (antibody, V domains shown) VH: QVQLVQSGAEVKKPGASVKVSCKASGYTFTNYYIHWVRQAPGQGLEWMGIIHPSSGGTSYAQKFQGRVTMTRDTSTSTVSMDLSSLRSEDTAVYYCGRAFRILGLSDVFVNDWGQGTVVTVSS VL: DIQMTQSPSSLSASVGDRVTITCRASQGINNYLAWYQQKPGKVPKLLIYAASTLQSGVPSRFSGSGSGTAFTLTILSLQPEDVATYYCQKYNSAPFTFGPGTKVDIK | 0 | 100 | 100 |  |
